Results taken from patent publication US20110294730A1, “METHOD OF TREATING GLAUCOMA AND INTRAOCULAR HYPERTENSION” (priority 2010, published 2011).

Test system: not given
Test: not given
Conditions: in vivo; cited from earlier work

Compound	Effective duration of action [h]	Maximum duration [h]	Onset of Action	Peak action
Insulin aspart [Insulin aspart (NovoLog)]	3 to 4	4 to 6	¼-½	½-1¼
Insulin detemir [Insulin detemir (Levemir)]	14	~20	3 to 4 h	6 to 8 h
Insulin glargine [Insulin glargine (Lantus)]	18 to 20	20 to 24	3 to 4 h	8 to 16 h
Insulin glulisine [Insulin glulisine (Apidra)]	3 to 4	4 to 6	¼-½	½-1¼
Insulin lispro [Insulin lispro (Humalog)]	3 to 4	4 to 6	¼-½	½-1¼
NPH (isophane): intermediate-acting NPH (isophane) insulin	10 to 16	14 to 18	2 to 4 h	6 to 10 h
Regular (soluble): short-acting regular (soluble) insulin	3 to 6	6 to 8	–	2 to 3 h

Test system: not given
Test: not given
Conditions: […] eye drops; cited from earlier work

Compound	miosis
CNC(=O)Oc1ccc2c(c1)[C@]1(C)CCN(C)[C@@H]1N2C [physostigmine sulphate]	sustained miosis

Test system: not listed separately
Test: Curcumin eye drops, retinal damage due to glaucoma
Format: in vivo
Conditions: curcumin 1 to 5 percent in normal saline
From the text: We have used curcumin diluted in the normal saline from 1 to 5 percent after extracting it from turmeric using solvents such as DMSO and alcohol as well other known solvents. […] The sclera can be stained yellow that can be mistaken for jaundice. All the above antioxidants can be used with insulin as described above and there is no systemic reaction.

Compound	improving the retinal damage
COc1cc(/C=C/C(=O)CC(=O)/C=C/c2ccc(O)c(OC)c2)ccc1O [curcumin]	very effective

Test system: trabecular meshwork
Test: not given
Conditions: cited from earlier work

Compound	extracellular acidification
11-Ib: exogenous growth factor	significantly stimulated
EGF: exogenous growth factor	significantly stimulated
FGF-1: exogenous growth factor	significantly stimulated
HGF: exogenous growth factor	significantly stimulated
IGF-1: insulin like growth factor	significantly stimulated
TGF-a: exogenous growth factor	significantly stimulated
TNF-a	significantly stimulated

Test system: not given
Test: not given
Conditions: patients treated with latanoprost; cited from earlier work

Compound	increased iris pigmentation, share of patients [%]
CC(C)OC(=O)CCC/C=C\C[C@@H]1[C@@H](CC[C@@H](O)CCc2ccccc2)[C@H](O)C[C@@H]1O [latanoprost]	≤ 17
